# Results as given in PMC11645210 (Cell, 2024).
# B1: VIR-7229 Fab (obtained by fragmentation of the IgG) (Fab, V domains shown)
# VH: EVQLVESGGSVVQPGRALRLSCAASGITFSSFGMYWVRQAPGKGLEWLGYIAYDGSDTYYADSVKGRFTISRDNSKNTLYLQMNSLRIEDTAVYYCAKDYYPLLSYYYGLDVWGQGTTVTVSS
# VL: QSVLTQPRSVSGSPGQSVTISCTGTSSDVGAYNYVSWYQQHPGKAPKFMIYDVDQRPSGVPDRFSGSKSGNTASLIISGLQAEDEADYYCSSYAGSYIWVFGGGTQLTVL
# B2: VIR-7229 Fab fragment (Fab, V domains shown)
# VH: EVQLVESGGSVVQPGRALRLSCAASGITFSSFGMYWVRQAPGKGLEWLGYIAYDGSDTYYADSVKGRFTISRDNSKNTLYLQMNSLRIEDTAVYYCAKDYYPLLSYYYGLDVWGQGTTVTVSS
# VL: QSVLTQPRSVSGSPGQSVTISCTGTSSDVGAYNYVSWYQQHPGKAPKFMIYDVDQRPSGVPDRFSGSKSGNTASLIISGLQAEDEADYYCSSYAGSYIWVFGGGTQLTVL
# notes: source: ExpiCHO (IgG1); Fab by fragmentation of the IgG with the FabLACTICA Fab kit
# Assays:
# Experiment in all cases: SPR
# Settings in all cases: both partners purified
# [1] = target: T1, SARS-CoV-1 Urbani RBD (SARS-CoV-1 Urbani)
# T1 construct: source: Expi293F, purified (cobalt IMAC, SEC)
# [2] = target: T2, SARS-CoV-1 (Urbani) RBD (SARS-CoV-1 Urbani)
# T2 construct: source: Expi293F, purified (cobalt IMAC, SEC)
# [3] = target: T3, SARS-CoV-2 Wuhan-Hu-1 RBD (SARS-CoV-2, UniProt P0DTC2)
# T3 construct: source: Expi293F, purified (cobalt IMAC, SEC)
# [4] = target: T4, WIV1 RBD (Bat SARS-like coronavirus WIV1)
# T4 construct: source: Expi293F, purified (cobalt IMAC, SEC)
Binder,binding result [1],Kd [2],koff [2],kon [2],Kd [3],koff [3],kon [3],Kd [4],koff [4],kon [4]
B1,binds,–,–,–,–,–,–,–,–,–
B2,–,2.46 nM,0.000912 s⁻¹,375000 M⁻¹ s⁻¹,0.185 nM,3.67e-05 s⁻¹,199000 M⁻¹ s⁻¹,7.85 nM,0.00304 s⁻¹,387000 M⁻¹ s⁻¹
